Measured values as given in publication PMC8892257.

Target: Orai1-GFP (UniProt Q96D31)
Assay: FRET or BRET

Sequence of UniProt Q96D31 (Q96D31 whole entry): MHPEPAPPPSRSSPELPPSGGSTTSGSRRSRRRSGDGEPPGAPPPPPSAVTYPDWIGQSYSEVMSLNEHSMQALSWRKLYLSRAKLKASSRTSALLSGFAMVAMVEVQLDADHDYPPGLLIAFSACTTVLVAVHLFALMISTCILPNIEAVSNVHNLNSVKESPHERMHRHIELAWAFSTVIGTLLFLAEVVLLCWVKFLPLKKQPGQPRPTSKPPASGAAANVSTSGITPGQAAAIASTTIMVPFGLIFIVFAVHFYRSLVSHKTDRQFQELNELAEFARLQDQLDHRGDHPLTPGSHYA

FRET efficiency (E-FRET): 0.26
Substance: STIM1A-mCherry (natural protein)
